Results: the domain aggregation screens of Martell et al. (2025)

Assay: soluble fraction after stress (log2 fold change); higher = more stays soluble; pooled small domains, quantitative proteomics
Conditions: stress: 50 degC
Procedure, shortened: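 Custom libraries of small protein domains were pooled and measured in a high-throughput format, with quantitative proteomics as the read-out. Each library was stressed at 50°C. The value is the log2 fold change in the amount of each protein that stays soluble after stress, used as a measure of aggregation propensity; higher values mean more of the protein stays soluble.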

Sequence	soluble fraction (log2)
HMEPAPELTPREQQVLARIALGMTDKAIAEELGVSHQTVRNHVARIYQKIKVHSRSQAVVWAREKGI	-0.192
HMNSEAVQNVIDKISALPDDITAKAKSQIEEARAAYEALSDSEKARVTNYSTLVAAEKKLASVVKD	0.325
HMNVNVSFTQLRHKAEHAIQAKNWSEARNLLTLATLMRPTHRNVARRLKAVEQRNRLFRRLLLILTHRKV	-0.295
HMDFDLIAIFEEQFARALSPIEINIIKEWKNSNYSDDMIVKALKEAVKSQVFNFRYIERILINWSQNG	-0.387
HMVQVPSLVGISEIEAKTLLTQAGFFVKIVEVFDANQPVGIVLAQAPSAGESRIIGSPVTITVNKAQ	-0.867
HMINKIANLSAELRMEGLPVSIRSTQAAVKIYMDLGGDDRNLLKTALMSIYVKDRYDIPKFNKVFEKLFA	-1.12
HMGDVATVKLDNNGLLNMRKSDARGADIVARIPNGTVVQVLNRETEWTQVRYDGKEGYVMSSFLQFAE	0.199
HMYSIDNPPDWLKNLPKGAIRIGVEVFNQVLSKADDEDRARMAAWSAIKAKYEKADDGQWQPKAA	-0.0798
HMGEKTLSEKVYDRLKELIMDGELERGTKITETSIAKMFDVSPTPVREAFRKLASDGLIEVASWKGVIVKG	-0.0886
HMGDPSSERNIQKSIFILIGEKALSVQDISRSLGMPNDIIDKALISGVERNLWLSSDKGEYYL	-1.1
HMGSLKISNPVKDTLWIQGVDGLKSIEIYSSTGQLVKTILGNQGDVSSLPKGVYFLKINTPSESLTAKIIK	-0.0698
HMEEDPVISQAQRQALFKLAHDHFGQEEGNKVILRLIGEHGLRSTTNMTASVYKTVTDALIQVIESMVEG	-0.0318
HMVKRAYGEYVNVKLTDADLSKLKADFPADWQERIERLSTYMASTGKTYKNHLATIRNWARRDAERVSA	0.22
HMISLPSYIREEATEVYNRLHDLGLEYTSLDVNDDSIPKGYVVRTVPEAGASVPAGQVVTVYVSLG	-0.446
HMVQIVINKEVQTTSQTILRENAGTSSRNIGYVDPNVKLRATLDRNSFYFIPEKKGWIMKSRVKLIEDLS	-3.79
HMSFGESLKKLSIALNSIRKLATTDAGKKDPKVADLLGQIRDTFNSYRTHLRKNYPDLYSGIKNQL	-0.62
HMSPFYILDEVEAALDDTNLGRLLEIYEELRENSQLLVITHQKRTMEVGDALYGVTMRGDGVSAVISQRLR	0.303
HMIAVIKPSATAEQKAGLVDWIRGQGIDVHISEGHDYTVLGLIGDTSKIDMDLIASLDIVDSVKRVA	-0.0298
HMKAFTKKELQDLVLNIFRASPTTNYNYKQLYKLIRGKDPEIKTLIIAVLLGLEKNGSILQMRPGKYKFS	0.593
HMSDGTVYGSDGVIKVNLPQSGMLRIYATDGTTLVNRWQAAGIDTISMPRGLYIVRFDNQVWKVVV	-0.74
HMKTLGMDKGVNIALNDAGLRAEDVSNLSAHYDTEDGVPVYEIKFTAGGFSYEYQIKASDGTIIEADRDAA	-0.108
HMGLTRRAQLEVADANLKRLYPGMHQSWVTAIAEYLHSSYWRYINSLEPEYAASIQRVYEQHIDAM	0.0529
HMSIQREIILEVIKNNRTHPTAEEIYILVTKKEPKISRSTVYRNINILVEKGIIEKITIATGPDRYDY	-1.4
HMKTTKESLLEYIQREVFTDSIHKEGLSTNEIADAFQIQRSNVSSLLNTLVKEGKLEKTTGRPVLYRIPEK	0.0655
HMDDVIDVYATYDVSPTNQISNIKLYSDAAHANPVTGEAGKSYNDITEGHPGYQFRWSGTTWVPI	-0.295

Sequence	soluble fraction (log2)
HMETVSFNPDIAVIPDYRHVVILGETTKTIANKYDIPVDILKAANPGLGNNVTKGDRLRVPDKTKLQ	0.155
HMTTIAQMTGPQRAAVILLVLGEDHGRTIWQEFDDDEIRIITRAMAELGTVDADEVERLMLDFVGKLSS	-2.58
HMLEIDPPVDEISVSRKAFYEAAGYKVNPYTHIPPRYRKEFEEHSFVVMSWPRELPEETYRKFDRYLRDV	0.103
HMSVTIDAGGKVYLQESEIADDQLVPRLVAISNNGYDKPIYLRADKTVGYGRVAEVMSLLNAAGFTKLVLV	-0.0288
HMHTDQVLVMTRAVGQGEIVRNTDVGLTSVAVDRAVTTIPASQLDEIVGRHALVDLSAGQLLGSHSVGA	0.0253
HMSENEIDELRRRFAREAMALMERKGEEVSRTRLAAELSVARARIDAVFPEESDLLEAVTAEWFA	-0.562
HMDPSHGESRENLDIMRIIDETHLEYPSWGYRKMTDHLRANHGYTINRKRVRRLMRLMDIIALFPG	-1.47
HMTGMEAAEFGKRIMKLRKQKGMTQSKLAEQINVSNKAISRWETGEGFPEITLLKPLAKALGTTVDELFGE	-0.204
HMDVRKSISDLKALGLSDAAVTVYGTIGNKPVHIDKIVSELGIPVFKVLTALTQLEMKGLVTAMQGRMYVL	-1.01
HMSNLKKRRLEKNLTLDDVGKLVGVSAATISRWESGDIENMRSDKIVKLANALEISPAVILGW	-0.0215
HMSELADDPVYTALEKAADKAGLQLTVRILNDLADAVLKRGKKKLTAAQAGKVIARAESELAKSRID	-0.0759
HMVERLVVSPGAGVFAPNKAIANGTRISVGDVLGMVGEQEVRSLFDGVLQSFISVDGERLTAHQPVAWLRT	-0.536
HMWQKGEPAITGLKRISKPGLRIYSKNDELPIVYGNRGIAVISTNKGVMTGIEAKRSGVGGEVLFYV	-0.045
HMGSLPPPKDGTTIYVVKPGDSLWRISGKFFGNPLFWPRLWEINPNIDNPNKIYPGDVISLKP	0.00421
HMTYSAWIEKAYSELEKKGITEAELSDALDKRGINLEDLKLMGPDEAVKYQSEVEGVVLELSKSKE	-0.0868
HMQTMTDDQVMQYVISQQEKGATQQDIVSKLLQKGVTVDQMRRIRKKYEAQQSQPGALDLTGSS	0.209
HMSAETREELVGREGVSLTDLRPSGFALFGQEKIDVVSESEFIEEGTSVRIVSVEGSRHIVRAKR	0.0998
HMQKITPDNWTYIRSLIRQKWSPDQIDQWLKKHPDVGFTVSRETIYQYVKEDRQKDGDLYLSLRRAGKSY	-1.71
HMEPMLEIFDAKIDLADVLAVESGLVRLRGGAEVTSPRVDVDAGARLELDSGARLNVERLSY	0.0258
HMPGVTTQLHRLNGTEETYIIKRGDGVLEIDGEKSELQLGDAIIIPAGASQKISNIGDEDLE	-0.346
HMSVTVPDVKRMQAEDAKALLSRYRLRSEVIDSVYVDNIPRGAVVEQIPRENSSVKENRIVFLTINSN	-0.363
HMKKNTEALDYYKKAGANFPEDEVISSEYLFRAAQLQEVLGKTDEAVAIYKDIKAKYPTTEIGLNVDKFIL	-0.0868
HMEKPAQDVLASHREWMGEMIKAEHMTAKQVWRLLRERADIGVSYPTVKRYLRAHFQFGGPS	-1.28
HMKSLAQELVDALGDRIRDGRLKVGDKLPSEAAIEAQYGVSRTVVREAISRLQAAGLVVTRHGIGTFIVGI	-0.804
HMQNGNLVDVYLNWRGKYYAIKMFFPNSKMPRRSDVQDQIVKVYPDARVQSFQVSKYVPGQPFL	-1.62

Sequence	soluble fraction (log2)
HMPARTANEEAIRKYLLNHDSITRKETQALLKTGQSAAGRILKEMVENGWLARIGNGRSTGYELR	-0.034
HMVSTEDEISDKLLLDFALEKLSENEKQIVKLRYYNSLTQSKTAEILNMTQVQVSRSEKKILAKLRGII	-0.267
HMITLYIHNLEEVGKRLDHYLVSNLDDHSRSQIQSWIRSGSILVNDRSVKTGYSLELNDQILINPPK	-2.63
HMSRLMIVTPDGRIMDDVPEFGEVRTTTDVNGRVLVLDRNNVVIGFEMTPREYRREFGRNPF	-0.643
HMLINPLDILRNFNLSLYDDSRDSASNKEIDEIFESIKTNNSHIFSTLKAYRIPLPIASLIIKKIIKITLE	-0.534
HMTETNSVTINERLTLYRRSRSGRWQARVKLNTGEWHRFSTGTADFEKAKESAHRELHNVGFRAENNLPQ	-0.598
HMALENTDLYAHLRLSHTASVPEIQAALSARVKHMPLQTWLLARKWLLHPRLRERYDGMWSVRFGA	-2.62
HMTVTTDITQYFLQENGLLNGPNARQLRQKIGETLNIGYTNGKQLLKRAQQFGLTRDQILTALKK	-0.481
HMQTAAANPSPESILQAREAAGLSQSEAGALIYSGLRSWQHWEWGTRRMHPGLFELFLKKTGQI	-1.7
HMSDHSSLAGKEGVAVTPLRPAGTAEIDGKRMDVVTMGDYIKAGDHIKVVKVEGNRIIVAKN	0.0433
HMLNENNHGEWSIRMSNGLVVRLGRDELNRSLRRSIMAYAGLAPNYRSSIEYIDARYLGGVALKTF	-0.091
HMDTERLYAYAWQTHLKQFGLNISEEEIRQFVGVDDRIVHSFYAKTVPLDDFENTMFSLGEIIQQSL	-2.99
HMGPYGAGSAAPAEDGSGPEGWTVKGNAKSMLYHTEGSPYYGRTNADVWFRDEESAEAAGFRRWDRK	0.0581
HMPGRKTTFEERLSIIEDLIKHDVNYSWAVDKYHVSYQQVYGWYQKYRKSGNDPQSLRDRRGK	-2.7
HMVAAITDLPVKSVNGRQMYYYVVRKGETVYSLTHTLGITHDRLVKANRSVEDGLRAGQILYFPVSEFG	-1.42
HMSASEKLFEARKNLNIVNVLGKNPVDRYDIVKILKHGDHYHIYDSKGNEGITYTNPKSLYPEAEFGEYQG	0.12
HMAQLKYEQIKSYLQAEAVKPESATRMPTVRELMRRFNVSLVTVNRALSELEHAKVIVRRQGAGIVAAQ	-0.703
HMHTNNALWAIADDMRARKDDGEFDTYREGYKWAANNIVKEGIHITAIKLEKAYHKAKSEGKV	-0.0602
HMASPKEALWRSLAEEPDTWWDNRERKSQPGANPRSPDFKHKESGEALWIESRDTPTWVLETL	0.1
HMGWTTPAGIAVGMDKSVLQDAYGKEDDTFQDKGILYYQYFVHPSRMSGLSFGIKNDKIVSITAYMD	-2.06
HMGSNENTIREYFDSLIASASKREIMDANPTMSQRTVERILQKLQAEGYVEKIGAARSTRYRRA	-0.178
HMSGSFDVTLDYLNSLRNLYPAIDVEQEFRKMYAWLDSNPKNRKTERGIKRFITGWLGRAQDKAP	-1.12
HMENNIRLSVPDTESGQRIDSYLAEQIPGLTRSAVQNLLAEQAVTIAGKAVKKNYKLLGGEDILVQLPEVR	0.216
HMDDNRSLSDLAQQVFKRENIQVSRDTLSLLVSRLGSDRAVSRQEIEKLALFAGSNGKLTEEDIHNALG	0.192
HMNFIPGEKINLKIVQEGKEKNQGVGYLSDGTMVIVENGSQKLGQDVEVVVIKNIQSSAGKIVFGDISK	0.0978
